Test results published in patent publication US20220064289A1 (SHENZHEN BEIKE BIOTECHNOLOGY, published 2022).

Target: T1, CD19 antigen (UniProt P15391 20-556, limits assumed)
T1 construct: whole, on cells; the cell lines are human
T1 sequence (looked up): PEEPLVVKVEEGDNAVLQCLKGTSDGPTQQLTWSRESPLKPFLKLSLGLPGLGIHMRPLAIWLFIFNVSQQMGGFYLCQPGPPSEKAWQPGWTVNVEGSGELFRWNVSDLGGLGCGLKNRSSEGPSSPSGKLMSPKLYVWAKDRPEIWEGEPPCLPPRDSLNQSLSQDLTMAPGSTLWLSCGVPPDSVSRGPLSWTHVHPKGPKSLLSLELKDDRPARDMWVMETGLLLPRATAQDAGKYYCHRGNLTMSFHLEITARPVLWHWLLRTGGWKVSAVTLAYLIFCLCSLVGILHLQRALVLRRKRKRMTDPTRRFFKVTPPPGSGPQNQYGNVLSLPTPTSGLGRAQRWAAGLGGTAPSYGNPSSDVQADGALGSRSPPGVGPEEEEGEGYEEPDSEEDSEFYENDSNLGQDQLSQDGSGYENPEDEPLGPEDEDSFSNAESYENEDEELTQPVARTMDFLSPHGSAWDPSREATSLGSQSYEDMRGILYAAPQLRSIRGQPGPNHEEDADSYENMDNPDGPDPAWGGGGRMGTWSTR
Assay: flow cytometry on BV173 cells, detected with FITC-labeled Protein L
Description: 1. T cell and BV173 cell experimental group: 5 μg of multi-function proteins TiTE-15, 16 were added to BV173 cells and 3×10\hat{ }5 T cells derived from mononuclear cell-rich white membrane layer of normal human peripheral blood by density gradient centrifugation, and stimulated by OKT3 (50 ng/mL) and IL2 (300 IU/mL) for 14 days, and incubated on ice for 30 min. The supernatant was removed by centrifugation and the cells were re-suspended in 200 μL of PBS. 2 μL of FITC-Labeled recombinant Protein L (ACRO Biosystem, RPL-PF141) was added and incubated on ice for 30 min. The supernatant was removed by centrifugation, washed twice in 500 μL PBS, and re-suspended in 200 μL of PBS.
T cell and BV173 cell negative control group: 3*10E5 T cells respectively (PBMC stimulated with 50 ng/mL OKT3, 300 IU/mL IL2) were mixed with BV173 cells (ATCC) first, and 2 μL APC Mouse anti-Human CD279 (BD, Cat. No. 558694) was added to the cells and incubated on ice for 30 min. The supernatant was removed by centrifugation, and the cells were re-suspended in 200 μL of PBS as a negative control.

- binding result: binds
B1: multifunctional protein TiTE-15 (other)
chain: DIQMTQTTSSLSASLGDRVTISCRASQDISKYLNWYQQKPDGTVKLLIYHTSRLHSGVPSRFSGSGSGTDYSLTISNLEQEDIATYFCQQGNTLPYTFGGGTKLEITGSTSGSGKPGSGEGSTKGEVKLQESGPGLVAPSQSLSVTCTVSGVSLPDYGVSWIRQPPRKGLEWLGVIWGSETTYYNSALKSRLTIIKDNSKSQVFLKMNSLQTDDTAIYYCAKHYYYGGSYAMDYWGQGTSVTVSSGGGGSITCPPPMSVEHADIWVKSYSLYSRERYICNSGFKRKAGTSSLTECVLNKATNVAHWTTPSLKCIRDPALVHQSGGSGGGGSGGGSGGGGSLQDIQMTQSPSSLSASVGDRVTITCRASQDIRNYLNWYQQKPGKAPKLLIYYTSRLESGVPSRFSGSGSGTDYTLTISSLQPEDFATYYCQQGNTLPWTFGQGTKVEIKGGGGSGGGGSGGGGSEVQLVESGGGLVQPGGSLRLSCAASGYSFTGYTMNWVRQAPGKGLEWVALINPYKGVSTYNQKFKDRFTISVDKSKNTAYLQMNSLRAEDTAVYYCARSGYYGDSDWYFDVWGQGTLVTV
notes: Main peptide chain alone, no co-peptide chain
